Measurements: the FLAb antibody collection

Assay: patients with anti-drug antibodies; higher = more immunogenic

| Protein | patients with anti-drug antibodies |
| --- | --- |
| unnamed (protein) chain 1: EVQLVESGGGVVQPGKSLRLSCAASGLTFSSYAVHWVRQAPGKGLEWVTLISYDGANQYYADSVKGRFTISRDNSKNTVYLQMNSLRPEDTAVYYCAVPGPVFGIFPPWSYFDNWGQGILVTVSS chain 2: EIVLTQSPATLSVSPGERATLSCRASQVISHNLAWYQQKPGQAPRLLIYGASTRASGIPARFSGSGSGTDYTLTITSLQSEDFAVYYCQHYSNWPPRLTFGGGTKVEIK | 1% |
| unnamed (protein) chain 1: EVQLVESGGGLVQPGGSLRLSCAASGFFITNNYWGWVRQAPGKGLEWVGYISYSGSTSYNPSLKSRFTISRDTSKNTFYLQMNSLRAEDTAVYYCARTGSSGYFDFWGQGTLVTVSS chain 2: DIQMTQSPSSLSASVGDRVTITCRASESVDDLLHWYQQKPGKAPKLLIKYASQSISGVPSRFSGSGSGTDFTLTISSLQPEDFATYYCQQGNSLPNTFGQGTKVEIK | 5% |
| unnamed (protein) chain 1: QVQLVQSGAEVKRPGASVKVSCKASGYTFTNDIIHWVRQAPGQRLEWMGWINAGYGNTQYSQNFQDRVSITRDTSASTAYMELISLRSEDTAVYYCAREPLWFGESSPHDYYGMDVWGQGTTVTVSS chain 2: AIQLTQSPSSLSASVGDRVTITCRASQGISSALAWYQQKPGKAPKLLIYDASSLESGVPSRFSGSGSGTDFTLTISSLQPEDFATYYCQQFNSYPLTFGGGTKVEIK | 1.7% |
| unnamed (protein) chain 1: EVQLVESGGGLVQPGGSLRLSCAASGFTLRSYSMNWVRQAPGKGLEWVSYISRSSHTIFYADSVKGRFTISRDNAKNSLYLQMDSLRDEDTAMYYCARVYSSGWHVSDYFDYWGQGILVTVSS chain 2: AIQLTQSPSSLSASVGDRVTITCRASQGISSALAWYQQKPGKAPKLLIYDASSLESGVPSRFSGSGSGTDFTLTISSLQPEDFATYYCQQFNSYPLTFGGGTKVEIK | 2.9% |
| unnamed (protein) chain 1: EVQLVQSGAEVKKPGASVKVSCKASGYTLTSYGISWVRQAPGQGLEWMGWVSFYNGNTNYAQKLQGRGTMTTDPSTSTAYMELRSLRSDDTAVYYCARGYGMDVWGQGTTVTVSS chain 2: ESALTQPASVSGSPGQSITISCTGTSSDVGGYNSVSWYQQHPGKAPKLMIYEVSNRPSGVSNRFSGSKSGNTASLTISGLQAEDEADYYCNSYTSTSMVFGGGTKLTVL | 0.3% |
| unnamed (protein) chain 1: QVQLQESGPGLVRPSQTLSLTCTVSGFTFTDFYMNWVRQPPGRGLEWIGFIRDKAKGYTTEYNPSVKGRVTMLVDTSKNQFSLRLSSVTAADTAVYYCAREGHTAAPFDYWGQGSLVTVSS chain 2: DIQMTQSPSSLSASVGDRVTITCKASQNIDKYLNWYQQKPGKAPKLLIYNTNNLQTGVPSRFSGSGSGTDFTFTISSLQPEDIATYYCLQHISRPRTFGQGTKVEIK | 5.1% |
| unnamed (protein) chain 1: EVQLVESGGGVVQPGRSLRLSCSASGFTFSGYGLSWVRQAPGKGLEWVAMISSGGSYTYYADSVKGRFAISRDNAKNTLFLQMDSLRPEDTGVYFCARHGDDPAWFAYWGQGTPVTVSS chain 2: DIQLTQSPSSLSASVGDRVTITCSVSSSISSNNLHWYQQKPGKAPKPWIYGTSNLASGVPSRFSGSGSGTDYTFTISSLQPEDIATYYCQQWSSYPYMYTFGQGTKVEIK | 8.7% |
| unnamed (protein) chain 1: EVQLVESGGGLVQPGGSLRLSCAASGFTFSNYWISWVRQAPGKGLEWVAEIRSESDASATHYAEAVKGRFTISRDNAKNSLYLQMNSLRAEDTAVYYCLAYFDYGLAIQNYWGQGTLVTVSS chain 2: EIVLTQSPATLSLSPGERATLSCKASKRVTTYVSWYQQKPGQAPRLLIYGASNRYLGIPARFSGSGSGTDFTLTISSLEPEDFAVYYCSQSYNYPYTFGQGTKLEIK | 1.6% |
| unnamed (protein) chain 1: QVQLQESGPGLVKPSETLSLTCAVSGGSISGGYGWGWIRQPPGKGLEWIGSFYSSSGNTYYNPSLKSQVTISTDTSKNQFSLKLNSMTAADTAVYYCVRDRLFSVVGMVYNNWFDVWGPGVLVTVSS chain 2: ESALTQPPSVSGAPGQKVTISCTGSTSNIGGYDLHWYQQLPGTAPKLLIYDINKRPSGISDRFSGSKSGTAASLAITGLQTEDEADYYCQSYDSSLNAQVFGGGTRLTVL | 0% |
| unnamed (protein) chain 1: EVQLQQPGSELVRPGASVKLSCKASGYTFTSYWMHWVKQRPGQGLEWIGNIYPGSRSTNYDEKFKSKATLTVDTSSSTAYMQLSSLTSEDSAVYYCTRNGDYYVSSGDAMDYWGQGTSVTVSS chain 2: DIQMTQTTSSLSASLGDRVTISCRTSQDIGNYLNWYQQKPDGTVKLLIYYTSRLHSGVPSRFSGSGSGTDFSLTINNVEQEDVATYFCQHYNTVPPTFGGGTKLEIK | 0% |
| unnamed (protein) chain 1: EVQLVQSGAEVKKPGSSVKVSCKASGYTITDSNIHWVRQAPGQSLEWIGYIYPYNGGTDYNQKFKNRATLTVDNPTNTAYMELSSLRSEDTAFYYCVNGNPWLAYWGQGTLVTVSS chain 2: DIQLTQSPSTLSASVGDRVTITCRASESLDNYGIRFLTWFQQKPGKAPKLLMYAASNQGSGVPSRFSGSGSGTEFTLTISSLQPDDFATYYCQQTKEVPWSFGQGTKVEVK | 0% |
| unnamed (protein) chain 1: QVQLVQSGAELKKPGSSVKVSCKASGYIFTSSWINWVKQAPGQGLEWIGRIDPSDGEVHYNQDFKDKATLTVDKSTNTAYMELSSLRSEDTAVYYCARGFLPWFADWGQGTLVTVSS chain 2: DIQMTQSPSTLSASVGDRVTITCKASENVDTYVSWYQQKPGKAPKLLIYGASNRYTGVPSRFSGSGSGTDFTLTISSLQPDDFATYYCGQSYNYPFTFGQGTKVEVK | 7.8% |
| unnamed (protein) chain 1: QVQLVESGGGLVQPGGSLRLSCAASGFTFRSYAMSWVRQAPGKGLEWVSAISGRGDNTYYADSVKGRFTISRDNSKNTLYLQMNSLRAEDTAVYYCAKMTSNAFAFDYWGQGTLVTVSS chain 2: QSVLTQPPSVSGAPGQRVTISCTGSSSNIGAGYGVHWYQQLPGTAPKLLIYGNTNRPSGVPDRFSGFKSGTSASLAITGLQAEDEADYYCQSYDSSLSGWVFGGGTKLTVL | 2.9% |
| unnamed (protein) chain 1: QVQLVESGGGVVQPGRSLRLSCAASGFTFSSYDMSWVRQAPGKGLEWVAKVSSGGGSTYYLDTVQGRFTISRDNSKNTLYLQMNSLRAEDTAVYYCARHLHGSFASWGQGTTVTVSS chain 2: EIVLTQSPATLSLSPGERATLSCQASQSISNFLHWYQQRPGQAPRLLIRYRSQSISGIPARFSGSGSGTDFTLTISSLEPEDFAVYYCQQSGSWPLTFGGGTKVEIK | 0% |
| unnamed (protein) chain 1: QVQLVQSGAEVKKPGSSVKVSCKASGYTFGNYWMQWVRQAPGQGLEWMGAIYEGTGKTVYIQKFADRVTITADKSTSTAYMELSSLRSEDTAVYYCARLSDYVSGFGYWGQGTTVTVSS chain 2: DIQMTQSPSSLSASVGDRVTITCRASKDISKYLNWYQQKPGKAPKLLIYYTSGYHSGVPSRFSGSGSGTDFTLTISSLQPEDFATYYCQQGDALPPTFGGGTKVEIK | 8.7% |
| unnamed (protein) chain 1: QVQLVQPGAEVKKPGTSVKLSCKASGYTFTTYWMHWVRQAPGQGLEWIGEINPTNGHTNYNQKFQGRATLTVDKSTSTAYMELSSLRSEDTAVYYCARNYVGSIFDYWGQGTLLTVSS chain 2: DIVMTQSPDSLAMSLGERVTLNCKASENVVSYVSWYQQKPGQSPKLLIYGASNRESGVPDRFSGSGSATDFTLTISSVQAEDVADYHCGQSYNYPYTFGQGTKLEIK | 0% |
| unnamed (protein) chain 1: QVELVESGGGLVQPGGSLRLSCAASGFTFSSYAMSWVRQAPGKGLEWVSAINASGTRTYYADSVKGRFTISRDNSKNTLYLQMNSLRAEDTAVYYCARGKGNTHKPYGYVRYFDVWGQGTLVTVSS chain 2: DIVLTQSPATLSLSPGERATLSCRASQSVSSSYLAWYQQKPGQAPRLLIYGASSRATGVPARFSGSGSGTDFTLTISSLEPEDFATYYCLQIYNMPITFGQGTKVEIK | 0% |
| unnamed (protein) chain 1: EVQLVESGGGLVKPGGSLRLSCAASGFPFSKLGMVWVRQAPGKGLEWVSTISSGGGYTYYPDSVKGRFTISRDNAKNSLYLQMNSLRAEDTAVYYCAREGISFQGGTYTYVMDYWGQGTLVTVSS chain 2: DIVMTQSPLSLPVTPGEPASISCRSSKSLLHRNGITYSYWYLQKPGQSPQLLIYQLSNLASGVPDRFSGSGSGTDFTLKISRVEAEDVGVYYCYQNLELPLTFGQGTKVEIK | 6.5% |
| unnamed (protein) chain 1: QVQLVESGGGVVQPGRSLRLSCAASGFTFSSFGMHWVRQAPGKGLEWVAVISFDGSIKYSVDSVKGRFTISRDNSKNTLFLQMNSLRAEDTAVYYCARDRLNYYDSSGYYHYKYYGMAVWGQGTTVTVSS chain 2: QSVLTQPPSVSAAPGQKVTISCSGSSSNIGNNYVSWYQQLPGTAPKLLIYDNNKRPSGIPDRFSGSKSGTSTTLGITGLQTGDEADYYCGTWDSRLSAVVFGGGTKLTVL | 2.4% |
